Results on 21 sequences are retold here after the supplement of paper PMC9170038.

This series deals with K4 kissing-loop RNA reporter. Nature of the series: apparent KD of K4 kissing-loop reporter; higher = weaker reporter binding. The settings on record: Eterna round: R107. As for the experimental part: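 RNA-MaP round R107: designed RNA switches with theophylline, tryptophan, arginine or FMN aptamers are transcribed on-chip within common flanks. They are titrated with a labelled K4 kissing-loop RNA reporter in RNA-MaP buffer (100 mM Tris pH 7.5, 80 mM KCl, 4 mM MgCl2), without ligand or with the indicated ligand. Median apparent KD per design.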

Setting [1] is: input ligand: theophylline 20 uM.
The mark [2] stands for this setting: input ligand: tryptophan 2.4 mM.
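Note: bound reporter read as fluorescence of individual clusters on recovered sequencing chips by microscopy, with normalized cluster intensities fitted with a binding model.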

“UGGAUAUAGUGAUGUUAUAUAGAGAUGGAUACCAGUUGAGAGAAUAGCCCUUGGCAGCCGAAAGAAGUAUCAUUAGAGAAGAAUG [ExTheophyl.Ak]”: the “apparent KD of K4 kissing-loop reporter” value is, setting by setting: (input ligand: FMN 200 uM) 0.269 µM; (input ligand: arginine 13.2 mM) 0.2 µM; (input ligand: none) 0.23 µM; under setting [1], 0.219 µM; under setting [2], 0.173 µM.
For “GUCCACACUGCAGGAUAUGGAGGUAUAGCGAGGGAGUUUGGAAGCACACCUCUGGCAGUGAUGUUGCCAGAAGGGCGGUGCGGCG [Rauserin]”, the “apparent KD of K4 kissing-loop reporter” value runs as follows: (input ligand: FMN 200 uM) 0.0824 µM; (input ligand: arginine 13.2 mM) 0.0895 µM; (input ligand: none) 0.0992 µM; under setting [1], 0.0643 µM; under setting [2], 0.0839 µM.
In the same order, the values of “CCACCAAGCACGGCCGCCACUAAAUCUGCAAGUAACCUAAAGUGAUGUUUUAUCUUGCGUCAGACUAGGACCGGGUGUCAAGUUA [theeternabot_sameState_KL_Trp_B_45]” are 0.42 µM, 0.408 µM, 0.387 µM, 0.704 µM and 0.755 µM.
In the same order, the values of “UACGCUGCCUGAGGAUAUAGAAACGAGUGAUGUUCGUGGAUAAGAGCCAGUGAUGUUGGGUUAUUUCUAGAAGGCAGGUAAAGUA [Exclusion FMN B GF6]” are 0.106 µM, 0.0891 µM, 0.102 µM, 0.0958 µM and 0.1 µM.
The matching figures for “UGCAUGCGUAGAGUGAUGUUCUAAGAUGAUACCAGUGCGGAAACGCACCCUUGGCAGCAUCUGACUGCAUGCACGUCGAAAGACG”: 0.718 µM, 0.666 µM, 0.826 µM, 0.399 µM and 0.598 µM.
For the sequence “AGUGAUGUGGGAAGGAGCGGUAGAUGAGUUCAGUGAUGUUGAAGUGAUGCUGUAGUGAUGUGCCAGGUAGGUCGCCUAGAUGUUA [KL-XARG B24]”, the “apparent KD of K4 kissing-loop reporter” value is, setting by setting: (input ligand: FMN 200 uM) 0.353 µM; (input ligand: arginine 13.2 mM) 0.162 µM; (input ligand: none) 0.258 µM; under setting [1], 0.13 µM; under setting [2], 0.207 µM.
In the same order, the values of “ACGUCAUCAAAAGGAUAUGCAUCGAAGUGAUGUUUCGUCAUAUCAGUCUGAUUGCAGCAAUUAGGAGCAGAAGGUUUAGUCCGGU [theeternabot_exclusion_KL_FMN_B_11]” are 0.0916 µM, 0.0807 µM, 0.0919 µM, 0.0776 µM and 0.0831 µM.
The matching figures for “AACCACUCGUUACAUCACUAUCGAGUGGAACGAGGACCGGUACGGCCGCCACUCGAUUAGAUGCAGUGAUGUUGCAUCUUAGAAU [KL-SSTryp-A (BrourdMod)3 #dotplot2 strengthened]”: 0.195 µM, 0.163 µM, 0.165 µM, 0.176 µM and 0.133 µM.
The matching figures for “AAGGUUGUGCAUGGGAGUGAUGUUCCCACGCAGGAUAUCGCUCACGCGAGAAGGGCGAGCACAACCGCUCAAGAAACUUGAGCAA [Omei KL FMN A SS C v2]”: 0.133 µM, 0.118 µM, 0.133 µM, 0.106 µM and 0.126 µM.
Turning to “UAGUCCUAGUGAUGGUCAUCACGUGGCGGGCGAGGACCGGUACGGCCGCCACUCGACUUUGCAGUGAUGUUGCAAACCGGACAAU [Exclusion - Tryptophan A (Freestyle 20)]”, the “apparent KD of K4 kissing-loop reporter” value turned out to be 0.144 µM (input ligand: FMN 200 uM); 0.134 µM (input ligand: arginine 13.2 mM); 0.133 µM (input ligand: none); 0.136 µM under setting [1]; 0.191 µM under setting [2].
In the same order, the values of “UGACUGGACUGAAGGAGCGCUAAACUCCUAGUGAUGUUAGGAAAACGAGACAAAGUCUCGAGGCAGGUAGGUCGCAGUCUAGUCU [ArgBS 18 #SwitchBubble #StaticStem]” are 0.123 µM, 0.12 µM, 0.136 µM, 0.128 µM and 0.114 µM.
As to “UGACUGGACUGAAGGAGCGAGGACGGUCAUAGACCGAAUUCAGUGAUGUUGAAAAUAAAACCUCAGGUAGGUCGCAGUCUAGUCU [ArgBS 3 #SwitchBubble #StaticStem]”, the “apparent KD of K4 kissing-loop reporter” value (input ligand: FMN 200 uM) worked out at 0.228 µM; the “apparent KD of K4 kissing-loop reporter” value (input ligand: arginine 13.2 mM) turned out to be 0.193 µM; the “apparent KD of K4 kissing-loop reporter” value (input ligand: none) is 0.219 µM; the “apparent KD of K4 kissing-loop reporter” value under setting [1] was found to be 0.216 µM; the “apparent KD of K4 kissing-loop reporter” value under setting [2] was 0.204 µM.
In the same order, the values of “ACUUAUUGUGUCGAUACCAGCAGGUGACGACGCCUCAUGGCUGACGAGUGAUGUUCGACUUGCCCUUGGCAGCGACAUACGCCGG [theeternabot_sameState_KL_Theo_B_12]” are 0.354 µM, 0.228 µM, 0.356 µM, 0.365 µM and 0.31 µM.
For “UCACGUGCCAGUGAUGUUGGCGUACGUGAUACCAGAACAAUAAAGUUCCCUUGGCAGCACAAAUAUGCCAAGUUAGAUGUAUGAU [Exclusion Theophylline A GF 3]”, the “apparent KD of K4 kissing-loop reporter” value was 0.121 µM (input ligand: FMN 200 uM); 0.118 µM (input ligand: arginine 13.2 mM); 0.123 µM (input ligand: none); 0.119 µM under setting [1]; 0.113 µM under setting [2].
In the same order, the values of “GGAUCCGCCAGUGAUGUUGGAGAAAACUCCAAGGAUAUGACGAAAGUCAGAAGGUGGUAGACUGGACAAAGUCCGGUCGGAUCCA [FmnA 26 #SwitchBubble #K4Early]” are 0.761 µM, 0.331 µM, 0.932 µM, 0.157 µM and 0.442 µM.
In the same order, the values of “UAUAUACAUUUAUUAAUUAAAGGUUCAGAAGGAGCGUGAAUUAACACAGGUAGGUCGCUGAGCGAGUGAUGUUCGCUAUAUGGUA [JR_ExcArginiA_Sub005]” are 0.0663 µM, 0.0726 µM, 0.0705 µM, 0.0871 µM and 0.0557 µM.
On to “AAUAAUGGAGUGAUGUUCCAGUAAUGGGAUACCAGACAUGAAAAUGUCCCUUGGCAGCUCAAAGGUCUAGUGAUGUUAGAAAGAA [KL-SSTheo-A5 #Double Kiss]”, for which the “apparent KD of K4 kissing-loop reporter” value runs as follows: (input ligand: FMN 200 uM) 0.273 µM; (input ligand: arginine 13.2 mM) 0.3 µM; (input ligand: none) 0.31 µM; under setting [1], 0.282 µM; under setting [2], 0.232 µM.
The matching figures for “AGGUCCGAGCCUGUAAAGGCUCGGACCUGUUAGGAUAUGACGUUAUUCAGAAGGGAUGGGUGGAGUGAUGUUCCACCCGCAAGGG [#2 Same State - FMN A Attempt #5 (HarryS)]”: 0.107 µM, 0.103 µM, 0.111 µM, 0.116 µM and 0.104 µM.
For the sequence “GGUGCUGGCCAGUGAUGUUGGCGAAUACUGAAGGAUAUGAUAGGCGUCAGAAGGUCAAGAGUAAUAUCUAGAAUGAAUAGUGAUA [theeternabot_sameState_KL_FMN_A_38]”, the “apparent KD of K4 kissing-loop reporter” value (input ligand: FMN 200 uM) was 0.296 µM; the “apparent KD of K4 kissing-loop reporter” value (input ligand: arginine 13.2 mM) was 0.289 µM; the “apparent KD of K4 kissing-loop reporter” value (input ligand: none) was 0.329 µM; the “apparent KD of K4 kissing-loop reporter” value under setting [1] was 0.439 µM; the “apparent KD of K4 kissing-loop reporter” value under setting [2] turned out to be 0.285 µM.
The matching figures for “UGUGUUUACCUGACUCAGUGAUGUUGAGAAGGAGCGUGCGAAGGCACAGGUAGGUCGCUCAACCUAAAUUCAGGUGAGCACUAAA”: 0.249 µM, 0.168 µM, 0.344 µM, 0.281 µM and 0.25 µM.
In the same order, the values of “AGAGUUUUAUGAGGAUAUGAGAUAGUUAAUGAGUGAGUUAUAGUGUAGUUUGGUUAGUGAUGUUAUUUAGAAGGCGUGAGUGAUG [zzfzmullin]” are 0.205 µM, 0.0929 µM, 0.143 µM, 0.101 µM and 0.108 µM.
